# Assay: yeast display, Sf9 membrane polyspecificity reagent, FACS + sequencing; frameworks hold sequencing errors
# Procedure, shortened: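 A nanobody's polyreactivity label depends on the gate it was sorted from. Yeast display cells were stained with 10% biotinylated, detergent-solubilized Sf9 membrane reagent for 1 hour at 4 °C, enriched on streptavidin microbeads and sorted by FACS. The low and high (top ~1%) gates were set on anti-HA fluorescence for expression and streptavidin fluorescence for reagent binding.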
row,Sequence,polyreactivity (PSR sort gate)
1,QVQLVESGGGIVQAGGSLRLSCAASGRIFDGYAMGWYRQAPGKESQLVAAISATGGSTYYADSVKGRFTISRDNAKNTVYLQMNSLKPEDTAVYYCATDYVRGLYRYKLSRYEYWGQGTQETVSS,low polyreactivity
2,QVQLVESGGGIVQAGGSLRLSCAASGRIFGYYAMGWYRQAPGKERELVARISSSGGSTYYADSVKGRFTISRDNAKNTVYVQMNSLKPEDTAVDYCNTASNRYPGWRAEFDYWGQGTQVTVSS,low polyreactivity
3,QVQLVESGGGIVQAGGSLRLSCAASGRIFNRYAMGWYRQAPGKKWELVATISVSGANTYYADSVKGRFTISRDNAKNTVYLQMNSLKPEDTAVYSCNVKRGTIGGYYYWGQVTQVTVSS,high polyreactivity
4,QVQLVESGGGIVQAGGSLRLSCAASGRIFSEYAMGWYRQAPGKERELVARITSSGGSTSYADSVKGRFTISRDNAKNTVYLQMNSLNPVDTAVYYCAGDGVWRRFYYLHYYWGQGTQVTVSS,high polyreactivity
5,QVQLVESGGGIVQAGGSLRLSCAASGRIFSPNAMGWYRQAPGKERELVASISSAGSTNYADSVKGRFTISRDNAKNTVDLLMKSLIPEDTAVYYCDADQPYYGYWDWYSHEYDYWGQGTQVSVSS,low polyreactivity
6,QVQLVESGGGIVQAGGSLRLSCAASGRIFSVYAKGWTRQAPGKERELVAAISSGGTTYYADSVKGRFTNSRDNAKNTVYLLMNSQKPDDTAVYYFAASVYYYRYNYWGQGTQVTVSS,low polyreactivity
7,QVQLVESGGGIVQAGGSLRLSCAASGRIFTRYVMGWYRQAPGKERELVAAITGRGTTTYYADSVKGRFTISRDNAKNTVYLKMNSLKPEDTAVYYCAATYYASNPQFTTNYGYWGQGTQVTVSS,high polyreactivity
8,QVQLVESGGGIVQAGGSLRLSCAASGRIFVRYAKGWYRQAPGKERELVAAITKSGGSTYYADSEKGRFTISRDTAKNTVYLQMNCLQPDDTAVYYCNADRFYIDYTNTYDSIRDYWGQGTLVTVSS,low polyreactivity
9,QVQLVESGGGIVQAGGSLRLSCAASGRIYRYNAMGWYRQAPGKERELVASINQRGGSTYYADSVKGRFTISRDNAKNTVYLQMNSLKPEDTAVYYCAQSFNSGYYYWGQGTQVTVSS,high polyreactivity
10,QVQLVESGGGIVQAGGSLRLSCAASGRNFDVYAMGWYRQAAGKERELVATISSSGVSTSYADSVKGRFTISRDNAKNTVYLQMNSLKPEDSAVYYCARKFLWKGFDYWGQGTQVTVSS,low polyreactivity
11,QVQLVESGGGIVQAGGSLRLSCAASGRNSNRYAMGWYRQAPGKEREFVAAISKSGTSTYYADSVKGRFTISRDNAKNTVYLQMNSLKPEDTAVYYGAAKTGVGLRVNSGIGFYYWGQGTQVTVSS,high polyreactivity
12,QVQLVESGGGIVQAGGSLRLSCAASGRSFPNNAMGWYRPAPGKERELLAAISSGSSTDYADSVKGRFTISRDNAKNTVSLQMNSLKPEATAVYYCNAGDYTYPGSPWPGYAYDYWGLGTQVTVSS,low polyreactivity
13,QVQLVESGGGIVQAGGSLRLSCAASGRSFYRYARGWDRQAPGKERELVASITRSGITHYADSVKGRFTISRDNAKNPVYLQMISLKPEDTAVYYCNGRRGSPAPYDYWGQGTQVTVSS,high polyreactivity
14,QVQLVESGGGIVQAGGSLRLSCAASGRTFAGYAMGWYRQAPGKERELVAGISVDDSTTYYADSVKGRFTISRDNANNTVYLQMISLKPEDTAVYYCNADYIDTFRGFDYWGQGTLVTVSS,low polyreactivity
15,QVQLVESGGGIVQAGGSLRLSCAASGRTFFYYAMGWYRQAPGKERELVAAITTDGGTTYYADSVKGRFTISRDNAKNTVSLQMNSLKPEDTAGYYCAADASYQYYPYDYWGQGTQVTVSS,low polyreactivity
16,QVQLVESGGGIVQAGGSLRLSCAASGRTFGYYAMRWYRQAPGKERELVAAIYWSGGSTRYADSVKGRFTISRDNAKNTVYLQMNSLNPDDTAVYYCAADSWYSFAGVYRVYGEDYWGQGTEVTVSS,low polyreactivity
17,QVQLVESGGGIVQAGGSLRLSCAASGRTFKSYAMGWYRQAPGKERELVAAISRSGDRTYYADSVKGRFTISRDNAKNTVYLQMNSLKREDTAVYYCNARAVTGDRSDDYWGQGTHVTVSS,high polyreactivity
18,QVQLVESGGGIVQAGGSLRLSCAASGRTFKWNAMGWYRQAPGKEREFVATISYSGGSTYYADSVKGRFTISRDIAKNSVYLQMKSLKPEDSAVYYCAAGSPYRFWHRFDYWGQGTQVTVSS,high polyreactivity
19,QVQLVESGGGIVQAGGSLRLSCAASGRTFSPYAMGWYRQAPGKERELVAGITWSGGSTYYSDSVKGRFTISRDYAKNPVYFQMNFLKPEDTAVYYCNAVGTYAYYCSFAYDYWGQGTQVNVSS,high polyreactivity
20,QVQLVESGGGIVQAGGSLRLSCAASGRTFSWNTMGWYRQAPGKERELVAAITRVGTTYYADSVKGRFTISRDNAKNTVYLQMNSLKPEDTAVYYCAVKGPRWAYPGVDYWGQGTQVTVSS,high polyreactivity
21,QVQLVESGGGIVQAGGSLRLSCAASGRTFYPNGMGWYRQERGKERQLVAAITSGGRTNYADSVKGRFTISRDNAKNTVYLQMHSRKPEDTAVYYSNAVKRRSTSSGMDYWGQGTQVTVSS,high polyreactivity
22,QVQLVESGGGIVQAGGSLRLSCAASGRTSWYYAMGWYRQAPGKERELVAAITASGGSTYADSVKGRFTISRDNAKTSVYLQMNRLKPEDSAVYYCAAERPYSRVGYYYWGQGTQVTVSS,high polyreactivity

row,Sequence,polyreactivity (PSR sort gate)
1,QVQLVESGGGIVQAGGSLRLSCAASGSIFFYYAMGWFRPAPGQERELVAAITSSGGTTYYADSVKGRFTISRDNAKNTVYLEMNSLKPEDTAVYDCNALTVGQRDYDYWGQGTQVTVSS,high polyreactivity
2,QVQLVESGGGIVQAGGSLRLSCAASGSIFYGYAMGWYRQAPGNERELVAAISSGGRTKYADSVKGRFTISRDNAKNTVYLQMNSLKPEDTAVYYCNVSYLVYRWNFGWSMDYWGQGTQVTVSP,low polyreactivity
3,QVQLVESGGGIVQAGGSLRLSCAASGSIQRYNDMGWYRQAPGKERELVAAISRSGGSTYYTDSVKGRFTISRDNAKNTDYLQMNSLKPEDTAVYFCYKASYTTVYAKYYYWGLGTQVTVSS,high polyreactivity
4,QVQLVESGGGIVQAGGSLRLSCAASGSTFATYAMGWYRQAHGKERELVAAITRSGGITYYADSVKGRFTISRDNAKKTVYLHMKSLKPEDTAVYYCNARTRSPTFSGRYYWGQATQVTVSS,high polyreactivity
5,QVQLVESGGGIVQAGGSLRLSCAASGSTFDGYAMGWYRQAPGKERELVAAITRSGGSTYYADSVKGRFTISRDNAKNTVYLQMNSLKPEDTEVYYCNKYGYKGGVGYDYWGQGTQVTVSS,high polyreactivity
6,QVQLVESGGGIVQAGGSLRLSCAASGSTFNDNAMGWYRQAPGNERELVAAITGGGGRTYYADSVKGRFTISRDNAKNTVYLQMNSLKPEATAVYYCNRGATFEYWGHGTQVTVSS,low polyreactivity
7,QVQLVESGGGIVQAGGSLRLSCAASGSTFQTYVMGWYRQAPGKERELVAAISSGGSTNYADSVKGRFTISRDNAKNTVYLQMNSLKPEDTAVYYCAKRWPYFRRGKDGYWGQGTQVTVSS,low polyreactivity
8,QVQLVESGGGIVQAGGSLRLSCAASGSTFRGYAMGWYRQAPGKERELVAAITYISDSTYYADSVKGRFTISRDNAKNTVYLQMNCLKPVDTAVYYCNAYYDGDWRYTSQETGDHWGQGTQVTVSS,low polyreactivity
9,QVQLVESGGGIVQAGGSLRLSCAASGSTFSSYAMGWYRQAPGKERELVAGITNSGGSTYYADSVKGRFTISRDNAKNTVYLQMNSLKPEDTAVYYCAAFPRTYSGYYYWGQGTQVTVSS,high polyreactivity
10,QVQLVESGGGIVQAGGSLRLSCAASGSTFVNYTMGWYRQAPGKERELVATITWSGDSTYYADSVKGRFTISRDNAKNTVYLQMNSVKPEDTAVYYCAGAPLETYYYWGQGTQVTVSS,low polyreactivity
11,QVQLVESGGGIVQAGGSLRLSCAASGSTSRDYAMGWYRTAPGKERELVAAITWSGGRTYYADSVKGRFTISRDNAKNTVYLQMNSLKPEDTAVYYCAAYHREGRRDDYWGQGTQVTVSS,low polyreactivity
12,QVQLVESGGGIVQAGGSLRLSCAASGYIFKYYAMGWYRQAPGKERELVAAITGGVSTNYADSVKGRFTISRDNAKNTVYLQMNSLKPEDTAVYYCAAAITPSDTGSEYDYWGQGTQVTVSS,low polyreactivity
13,QVQLVESGGGIVQAGGSLRLSCAASGYIFQYYAMGWYRQAPGKERELVAAITGGGSTKYADSVKGRFTISRDNAKNTVYLQMNSLKPEDTAVYYCAASLWYRISKYDYWGQGTQVTVSS,high polyreactivity
14,QVQLVESGGGIVQAGGSLRLSCAASGYTFRGNVMGWYRQAPGKERELVAAISRSGGSTYYADSVKGRFTISRDNAKNTVYLQMYCLKPADTAVHYCAKKPTSTYQQDSPRWSDYWGQGTQVTVSS,high polyreactivity
15,QVQLVESGGGIVQAGGSLRLSCAATGRTFGYNAMGWYRQAPGKERELVAAIRTIGDSTYYADSVKGRFTISRDNAKNTVYLQMNSLKPEDTAVYYCAARKLRSRYDYWGQGTQVTVSS,high polyreactivity
16,QVQLVESGGGIVQAGGSLRLSCAGSGRTFLWNAMGWYRQAPGKERELVARINLSGGRTYYADSVKGRFTISRDNAKKTVNLQMNSLKPEDTAFYYCAATVVRYRRDSWGQGTQVTVSS,low polyreactivity
17,QVQLVESGGGIVQAGGSLRLSCPASGSIFDTYAMGWYRPAPGKEREMVASWSGGSTYYADSVKGRFTISRDNAKNTVYLQMISLKPEDTAVDYCAKDYYVQPPGTRDDYWGQGSQVTVSS,low polyreactivity
18,QVQLVESGGGIVQAGGSLRLSFAASGSIFEINALGWYRQAPGKERELVAAITGSGGSTHYADSVKGRFTISRDTAKNTVYLQMNSLKPEDTAVYYCARTQRYDYGYDYWGQGTQVTVSS,low polyreactivity
19,QVQLVESGGGIVQAGGSLRLSIAASGNILNGNVMGWSRPEPGKERELVAAITSGGDTYYADSVKGRFTISRDNAKNTVYFQMNSLKPEDTAVYYCAADRPGQPKYEYWGQGTQVTVSS,low polyreactivity
20,QVQLVESGGGIVQAGGSLRLSSAASGFIFRYYAMGWYRQARGNEREWVAAISSGGRTSYADSVKGRFTISRDNAKNTVYLQMNSLTPEDTAVYYCAADRWRCLFYYGNDYWGQGTQVTVSS,high polyreactivity
21,QVQLVESGGGIVQAGGSLRLSSAASGNKFSLNGMGWYRQAPGKEREFVAAITWSVGSRYYADSVKGRLTISRDNAKHTVYLPMNILKPEDTAVYYCAATVSDLYKIEYYYWGQGTQVSVSS,low polyreactivity

# — the nanobody polyreactivity screen of Harvey et al. (2022)
